For 1 protein, kcat/Km, Km and kcat results are on record in ChEMBL document CHEMBL1140019, “Primary amides as selective inhibitors of cathepsin K” (Bioorg Med Chem Lett, 2007).

Details in all cases: Homo sapiens
Substrate in series [1]: CC(C)C[C@H](N[C@@H](c1ccc(-c2ccc(S(C)(=O)=O)cc2)cc1)C(F)(F)F)C(=O)N[C@@H](C)C(N)=O
Nature of the series: (§1) Ratio of Kcat to Km for humanized rabbit cathepsin K. Details: unit not given here.

Substrate in series [2]: Cc1cc(=O)oc2cc(NC(=O)[C@H](CCCN=C(N)N)NC(=O)[C@H](CC(C)C)NC(=O)OCc3ccccc3)ccc12
The series is described as §1. Details: unit not given here.

Substrate in series [3]: CC(C)C[C@H](N[C@@H](c1ccc(-c2ccc(S(C)(=O)=O)cc2)cc1)C(F)(F)F)C(=O)NCC(N)=O
The description is as §1. On the set-up: unit not given here.

Substrate in series [4]: CSCC[C@H](NC(=O)[C@H](CC(C)C)N[C@@H](c1ccc(-c2ccc(S(C)(=O)=O)cc2)cc1)C(F)(F)F)C(N)=O
Described as §1. Details: unit not given here.

Substrate in series [5]: CC(C)C[C@H](N[C@@H](c1ccc(-c2ccc(S(C)(=O)=O)cc2)cc1)C(F)(F)F)C(=O)N[C@@H](C)C(N)=O
The experiment in a line: (§2) Activity of humanized rabbit cathepsin K at 25 uM.

Substrate in series [6]: Cc1cc(=O)oc2cc(NC(=O)[C@H](CCCN=C(N)N)NC(=O)[C@H](CC(C)C)NC(=O)OCc3ccccc3)ccc12
Described as §2.

Substrate in series [7]: CC(C)C[C@H](N[C@@H](c1ccc(-c2ccc(S(C)(=O)=O)cc2)cc1)C(F)(F)F)C(=O)NCC(N)=O
The description is as §2.

Substrate in series [8]: CSCC[C@H](NC(=O)[C@H](CC(C)C)N[C@@H](c1ccc(-c2ccc(S(C)(=O)=O)cc2)cc1)C(F)(F)F)C(N)=O
The description is as §2.

B1: Cathepsin K (Homo sapiens), P43235 (protein)
chain: MWGLKVLLLPVVSFALYPEEILDTHWELWKKTHRKQYNNKVDEISRRLIWEKNLKYISIHNLEASLGVHTYELAMNHLGDMTSEEVVQKMTGLKVPLSHSRSNDTLYIPEWEGRAPDSVDYRKKGYVTPVKNQGQCGSCWAFSSVGALEGQLKKKTGKLLNLSPQNLVDCVSENDGCGGGYMTNAFQYVQKNRGIDSEDAYPYVGQEESCMYNPTGKAAKCRGYREIPEGNEKALKRAVARVGPVSVAIDASLTSFQFYSKGVYYDESCNSDNLNHAVLAVGYGIQKGNKHWIIKNSWGENWGNKGYILMARNKNNACGIANLASFPKM
On to B1, for which the kcat/Km is 0.26 in series [1], 0.04 in series [2], 0.19 in series [3] and 0.54 in series [4]. Moreover, the Michaelis-Menten constant (Km) (usually the concentration of substrate that gives half-maximal velocity) in series [5] stood at 0.087 µM; in series [6] it was 2 µM; in series [7], 0.119 µM. Moreover, the catalytic constant (kcat) (as a rule, the number of substrate molecules converted per active site and unit of time at saturation) was determined as 23.2 s⁻¹ in series [5], 79 s⁻¹ in series [6], 23.2 s⁻¹ in series [7] and 3.25 s⁻¹ in series [8].
